From publication doi:10.1101/2023.01.02.522444 (bioRxiv, 2023)

Assays:
[1] = biological target: histone H4 (Xenopus), in the nucleosome (Xenopus, UniProt P62799 1-103); assay: cryo-EM structure
Isw1 (residues 69-1129) = Isw1 (residues 69-1129) (S. cerevisiae, UniProt P38144 69-1129); assay: cryo-EM structure
Chain of Isw1 (residues 69-1129) (P38144 69-1129): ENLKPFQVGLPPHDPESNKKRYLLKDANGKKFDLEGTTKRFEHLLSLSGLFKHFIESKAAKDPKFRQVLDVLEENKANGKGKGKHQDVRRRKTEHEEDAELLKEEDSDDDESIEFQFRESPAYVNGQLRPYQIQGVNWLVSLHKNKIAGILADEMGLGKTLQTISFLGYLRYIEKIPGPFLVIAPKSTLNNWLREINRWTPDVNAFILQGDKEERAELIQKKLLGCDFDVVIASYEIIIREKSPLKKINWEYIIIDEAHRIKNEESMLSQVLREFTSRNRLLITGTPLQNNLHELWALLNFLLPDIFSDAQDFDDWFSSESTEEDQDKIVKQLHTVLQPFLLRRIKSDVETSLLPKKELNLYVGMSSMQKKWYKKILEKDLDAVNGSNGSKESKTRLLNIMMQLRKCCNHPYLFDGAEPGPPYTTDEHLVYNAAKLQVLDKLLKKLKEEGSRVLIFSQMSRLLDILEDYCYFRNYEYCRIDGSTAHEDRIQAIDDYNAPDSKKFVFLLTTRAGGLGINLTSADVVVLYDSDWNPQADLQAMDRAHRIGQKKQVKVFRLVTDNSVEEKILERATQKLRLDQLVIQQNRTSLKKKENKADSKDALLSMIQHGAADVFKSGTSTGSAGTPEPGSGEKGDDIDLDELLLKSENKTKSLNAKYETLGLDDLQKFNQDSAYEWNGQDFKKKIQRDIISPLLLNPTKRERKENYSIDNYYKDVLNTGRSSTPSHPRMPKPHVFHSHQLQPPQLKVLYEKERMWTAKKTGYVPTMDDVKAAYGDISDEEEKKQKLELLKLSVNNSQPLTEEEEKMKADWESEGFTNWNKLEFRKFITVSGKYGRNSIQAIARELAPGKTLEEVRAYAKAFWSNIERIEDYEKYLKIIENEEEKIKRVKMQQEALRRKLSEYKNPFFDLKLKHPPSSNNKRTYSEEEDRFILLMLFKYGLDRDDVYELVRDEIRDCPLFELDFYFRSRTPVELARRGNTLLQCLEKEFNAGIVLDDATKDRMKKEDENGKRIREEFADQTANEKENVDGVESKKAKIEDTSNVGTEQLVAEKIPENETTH

B1: Ioc3 (residues 127-749) (domain or fragment)
chain: VAPKPKPAHEQVEPALIPSNWTSVIPLLTSDFKNQYSVISRLKNPNMKPVPYAGDIIKLMAFINKFSSFFHSDLQNLSFQDFEVGLDLYPGDPNGSAAGIVKGPEDTSLLLYPDFMAIKDIVYCQDKMNLLFLSLLDLTFTENFDGKSAKKKGPLTTWENLKSSSKKVFSNPLYRLRLVAREWGYPREWRQQLPSDQDISKPKTALFEQDEQTPVVDPSHPEILTPNIYTWNANEPLPLESNPLYNREMDKNGILALKPMDRVVLLRALTDWCASHSSAIHDEIYKLTHGKKDPVFGIQTQQVPRYTIEGVDNTINQFKKLCSLIQSRYEIRSKKKHFVKQLKEGKKPDLSRKLEILKEIKAELKNAVKSEKDELLFSLYDKWVPLFEGELPDQPLANPFSERLYKLRLQEFFLGRVPHIGDFYMPRLHSYGDSLEMSTFTDLRNLQALLSKFKNNEYNAFTLFENDGQSMSAQFKLFYHDTPSLAHDVARGRNTSGKVYWYELCHDSATLLEFLEFLDYKIVKPQDEKKEGNEKEKEALNNEAHILEQKSTTDNNPSINTNPLPKDAKYNTARKKLQILKEFLSDYYFILRQFEQMKVQFADMKPGKRQLRRIQRQTVNYNT
B1: binds [1]; binds (Isw1 (residues 69-1129)).
